Test results published in patent US10568950B1, “Peptides, combination of peptides and scaffolds for use in immunotherapeutic treatment of various cancers” (Immatics Biotechnologies GmbH, priority 2015, dated 2020).

Molecular target: HLA-A*02 (Homo sapiens, UniProt P04439, D140Y/D185E/D98H/E176V/E277Q/G131W/G231S/I119V/I121R/I166T/I218V/N151K/N90K/P208A/P217A/Q86G/Q94H/R138H/R169H)
Assay: MHC binding assay: UV-ligand exchange, beta2m ELISA (peptide exchange yield)
Conditions: binding to HLA-A*02, β2m ELISA
Description: (§1) Candidate peptides for T cell based therapies according to the present invention were further tested for their MHC binding capacity (affinity). The individual peptide-MHC complexes were produced by UV-ligand exchange, where a UV-sensitive peptide is cleaved upon UV-irradiation, and exchanged with the peptide of interest as analyzed. Only peptide candidates that can effectively bind and stabilize the peptide-receptive MHC molecules prevent dissociation of the MHC complexes. To determine the yield of the exchange reaction, an ELISA was performed based on the detection of the light chain (β2m) of stabilized MHC complexes. The assay was performed as generally described in Rodenko et al. (Rodenko et al., 2006).
(§2) 96 well MAXISorp plates (NUNC) were coated over night with 2 ug/ml streptavidin in PBS at room temperature, washed 4× and blocked for 1 h at 37° C. in 2% BSA containing blocking buffer. […] Peptide-MHC monomers of the UV-exchange reaction were diluted 100 fold in blocking buffer. Samples were incubated for 1 h at 37° C., washed four times, incubated with 2 ug/ml HRP conjugated anti-βm for 1 h at 37° C., washed again and detected with TMB solution that is stopped with […]. Absorption was measured at 450 nm. Candidate peptides that show a high exchange yield (preferably higher than 50%, most preferred higher than 75%) are generally preferred for a generation and production of antibodies or fragments thereof, and/or T cell receptors or fragments thereof, as they show sufficient avidity to the MHC molecules and prevent dissociation of the MHC complexes.

| Substance | Peptide exchange (MHC class I binding score, peptide exchange yield) |
| --- | --- |
| 61 (HLPDFVKQL; listed as Homo sapiens) [compound 61] | ++ (20%-49% = ++) |
| 62 (SLFNQEVQI; listed as Homo sapiens) [compound 62] | +++ (50%-75% = +++) |
| 63 (TLSSERDFAL; listed as Homo sapiens) [compound 63] | + (<20% = +) |
| 64 (GLSSSSYEL; listed as Homo sapiens) [compound 64] | ++ (20%-49% = ++) |
| 65 (KLDGICWQV; listed as Homo sapiens) [compound 65] | +++ (50%-75% = +++) |
| 66 (FITDFYTTV; listed as Homo sapiens) [compound 66] | +++ (50%-75% = +++) |
| 67 (GVIETVTSL; listed as Homo sapiens) [compound 67] | ++ (20%-49% = ++) |
| 69 (GIYDGILHSI; listed as Homo sapiens) [compound 69] | +++ (50%-75% = +++) |
| 70 (GLFSQHFNL; listed as Homo sapiens) [compound 70] | +++ (50%-75% = +++) |
| 71 (GLITVDIAL; listed as Homo sapiens) [compound 71] | +++ (50%-75% = +++) |
| 72 (GMIGFQVLL; listed as Homo sapiens) [compound 72] | +++ (50%-75% = +++) |
| 74 (ILDETLENV; listed as Homo sapiens) [compound 74] | ++ (20%-49% = ++) |
| 75 (ILDNVKNLL; listed as Homo sapiens) [compound 75] | +++ (50%-75% = +++) |
| 76 (ILLDESNFNHFL; listed as Homo sapiens) [compound 76] | +++ (50%-75% = +++) |
| 77 (IVLSTIASV; listed as Homo sapiens) [compound 77] | +++ (50%-75% = +++) |
| 78 (LLWGHPRVA; listed as Homo sapiens) [compound 78] | +++ (50%-75% = +++) |
| 79 (SLVPLQILL; listed as Homo sapiens) [compound 79] | ++++ (>= 75% = ++++) |
| 80 (TLDEYLTYL; listed as Homo sapiens) [compound 80] | +++ (50%-75% = +++) |
| 81 (VLFLGKLLV; listed as Homo sapiens) [compound 81] | ++ (20%-49% = ++) |
| 82 (VLLRVLIL; listed as Homo sapiens) [compound 82] | ++ (20%-49% = ++) |
| 83 (ELLEYLPQL; listed as Homo sapiens) [compound 83] | +++ (50%-75% = +++) |
| 84 (FLEEEITRV; listed as Homo sapiens) [compound 84] | +++ (50%-75% = +++) |
| 85 (STLDGSLHAV; listed as Homo sapiens) [compound 85] | +++ (50%-75% = +++) |
| 87 (YLTEVFLHVV; listed as Homo sapiens) [compound 87] | +++ (50%-75% = +++) |

| Substance | Peptide exchange (MHC class I binding score, peptide exchange yield) |
| --- | --- |
| 88 (ILLNTEDLASL; listed as Homo sapiens) [compound 88] | +++ (50%-75% = +++) |
| 89 (YLVAHNLLL; listed as Homo sapiens) [compound 89] | +++ (50%-75% = +++) |
| 90 (GAVAEEVLSSI; listed as Homo sapiens) [compound 90] | + (<20% = +) |
| 91 (SSLEPQIQPV; listed as Homo sapiens) [compound 91] | + (<20% = +) |
| 92 (LLRGPPVARA; listed as Homo sapiens) [compound 92] | ++ (20%-49% = ++) |
| 93 (SLLTQPIFL; listed as Homo sapiens) [compound 93] | +++ (50%-75% = +++) |
| 321 (SLWFKPEEL; listed as Homo sapiens) [compound 321] | +++ (50%-75% = +++) |
| 323 (ILSVVNSQL; listed as Homo sapiens) [compound 323] | +++ (50%-75% = +++) |
| 324 (AIFDFCPSV; listed as Homo sapiens) [compound 324] | ++++ (>= 75% = ++++) |
| 325 (RLLPKVQEV; listed as Homo sapiens) [compound 325] | ++ (20%-49% = ++) |
| 326 (SLLPLVWKI; listed as Homo sapiens) [compound 326] | +++ (50%-75% = +++) |
| 327 (SIGDIFLKY; listed as Homo sapiens) [compound 327] | +++ (50%-75% = +++) |
| 328 (SVDSAPAAV; listed as Homo sapiens) [compound 328] | ++ (20%-49% = ++) |
| 329 (FAWEPSFRDQV; listed as Homo sapiens) [compound 329] | ++ (20%-49% = ++) |
| 330 (FLWPKEVEL; listed as Homo sapiens) [compound 330] | +++ (50%-75% = +++) |
| 333 (GTFLEGVAK; listed as Homo sapiens) [compound 333] | +++ (50%-75% = +++) |
| 334 (GRADALRVL; listed as Homo sapiens) [compound 334] | +++ (50%-75% = +++) |
| 335 (VLLAAGPSAA; listed as Homo sapiens) [compound 335] | ++ (20%-49% = ++) |
| 336 (GLMDGSPHFL; listed as Homo sapiens) [compound 336] | ++ (20%-49% = ++) |
| 337 (KVLGKIEKV; listed as Homo sapiens) [compound 337] | +++ (50%-75% = +++) |
| 338 (LLYDGKLSSA; listed as Homo sapiens) [compound 338] | ++ (20%-49% = ++) |
| 339 (VLGPGPPPL; listed as Homo sapiens) [compound 339] | ++ (20%-49% = ++) |
| 340 (SVAKTILKR; listed as Homo sapiens) [compound 340] | ++ (20%-49% = ++) |

Test system: HLA-A*24
Assay: as above
Design: species or system human
Conditions: binding to HLA-A*24, β2m ELISA
Description: as §1, §2

| Substance | Peptide exchange (MHC class I binding score, peptide exchange yield) |
| --- | --- |
| 97 (TYTFLKETF; listed as Homo sapiens) [compound 97] | ++++ (>= 75% = ++++) |
| 116 (AYVIAVHLF; listed as Homo sapiens) [compound 116] | ++++ (>= 75% = ++++) |
| 128 (VYPFDWQYI; listed as Homo sapiens) [compound 128] | ++++ (>= 75% = ++++) |
| 129 (KYIDYLMTW; listed as Homo sapiens) [compound 129] | ++++ (>= 75% = ++++) |
| 135 (VYEAMVPLF; listed as Homo sapiens) [compound 135] | ++++ (>= 75% = ++++) |
| 148 (SYGTVSQIF; listed as Homo sapiens) [compound 148] | ++++ (>= 75% = ++++) |
| 149 (SYGTVSQI; listed as Homo sapiens) [compound 149] | ++++ (>= 75% = ++++) |
| 153 (VYVPFGGKSMITF; listed as Homo sapiens) [compound 153] | ++++ (>= 75% = ++++) |
| 154 (VYGVPTPHF; listed as Homo sapiens) [compound 154] | ++++ (>= 75% = ++++) |
| 173 (QYLEKYYNL; listed as Homo sapiens) [compound 173] | ++++ (>= 75% = ++++) |
| 184 (IYSVGAFENF; listed as Homo sapiens) [compound 184] | ++++ (>= 75% = ++++) |
| 185 (QYLVHVNDL; listed as Homo sapiens) [compound 185] | ++++ (>= 75% = ++++) |
| 187 (AYAANVHYL; listed as Homo sapiens) [compound 187] | ++++ (>= 75% = ++++) |
| 196 (GYIRGSWQF; listed as Homo sapiens) [compound 196] | ++++ (>= 75% = ++++) |
